Experimental data as given in patent publication US20240226314A1 (Sanofi, published 2024).

T1: His-tagged cynomolgus monkey TfR ectodomain (cyTFRC_89_760; mature protein) (cynomolgus monkey (Macaca fascicularis), UniProt Q5RDH6 89-760 (Pongo abelii entry))
T1 construct: also called cTfR; cTfR ectodomain
T1 chain: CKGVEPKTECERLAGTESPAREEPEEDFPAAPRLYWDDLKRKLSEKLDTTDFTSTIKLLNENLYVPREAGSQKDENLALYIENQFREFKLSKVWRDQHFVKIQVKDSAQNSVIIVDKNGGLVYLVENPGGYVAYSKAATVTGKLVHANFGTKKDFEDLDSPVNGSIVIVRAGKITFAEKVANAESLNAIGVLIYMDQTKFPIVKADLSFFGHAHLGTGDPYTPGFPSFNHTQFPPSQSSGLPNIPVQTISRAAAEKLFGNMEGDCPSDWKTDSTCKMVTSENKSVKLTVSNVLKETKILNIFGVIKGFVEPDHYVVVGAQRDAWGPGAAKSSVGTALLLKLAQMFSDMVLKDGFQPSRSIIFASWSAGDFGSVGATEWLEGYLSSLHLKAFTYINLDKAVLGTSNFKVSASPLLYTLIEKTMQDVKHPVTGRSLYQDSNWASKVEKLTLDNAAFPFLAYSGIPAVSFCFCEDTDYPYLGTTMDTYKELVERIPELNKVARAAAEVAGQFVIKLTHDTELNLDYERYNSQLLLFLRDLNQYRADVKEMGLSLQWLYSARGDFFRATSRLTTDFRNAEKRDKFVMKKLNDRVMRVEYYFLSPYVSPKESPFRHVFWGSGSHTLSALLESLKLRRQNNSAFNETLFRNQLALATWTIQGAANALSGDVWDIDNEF

T2: cTfR expressed on 300.19 cells (SEQ ID NO: 2) (cynomolgus monkey, UniProt Q5RDH6 1-760 (Pongo abelii entry))
T2 construct: Murine pre-B cell line 300.19, stably transfected with a plasmid expressing cTfR; also called cynomolgus TfR; cTfR-expressing 300.19 cells
T2 chain: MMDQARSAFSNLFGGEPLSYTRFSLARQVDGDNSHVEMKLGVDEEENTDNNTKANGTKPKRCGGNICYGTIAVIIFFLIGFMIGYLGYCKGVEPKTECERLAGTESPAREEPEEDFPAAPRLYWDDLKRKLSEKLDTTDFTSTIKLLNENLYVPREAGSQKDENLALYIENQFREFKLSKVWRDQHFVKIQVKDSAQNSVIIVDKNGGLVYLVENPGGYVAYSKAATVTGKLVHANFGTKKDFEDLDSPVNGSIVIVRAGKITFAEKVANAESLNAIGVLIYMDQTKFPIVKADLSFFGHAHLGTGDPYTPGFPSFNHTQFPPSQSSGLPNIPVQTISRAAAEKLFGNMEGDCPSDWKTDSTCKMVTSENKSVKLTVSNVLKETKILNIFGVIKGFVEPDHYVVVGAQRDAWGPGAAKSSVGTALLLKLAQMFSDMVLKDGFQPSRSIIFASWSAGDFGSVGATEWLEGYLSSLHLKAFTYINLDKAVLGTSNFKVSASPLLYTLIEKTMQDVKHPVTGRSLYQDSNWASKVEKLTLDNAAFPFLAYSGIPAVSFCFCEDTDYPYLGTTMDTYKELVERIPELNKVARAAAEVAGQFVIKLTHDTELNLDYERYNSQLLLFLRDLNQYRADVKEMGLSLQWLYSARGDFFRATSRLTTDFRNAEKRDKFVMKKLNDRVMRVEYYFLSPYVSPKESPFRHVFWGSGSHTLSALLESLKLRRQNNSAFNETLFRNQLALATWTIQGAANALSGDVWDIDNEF


Tests used:
[1] = target: T1, His-tagged cynomolgus monkey TfR …; test: SPR; KD on cTfR against KD on hTfR
Protocol: (§1) Binding of the humanized Fab variants to human, cynomolgus and mouse TfR was assessed using SPR at pH 7.4. Experiments were run on a Bruker MASS-2 instrument with HBS-EP+ as running buffer and sample diluent (Cytiva Life Sciences, #BR100826). HCA sensor chips (Bruker, #1862614) were immobilized with anti-His antibody (His capture kit, Cytiva Life Sciences, #28995056) following manufacturer's instructions. About 10,000 RU of anti-His was obtained. His-tagged hTfR ectodomain (SEQ ID NO: 39), cTfR ectodomain (SEQ ID NO: 40) or mouse TfR ectodomain (SEQ ID NO: 41) (5 μg/ml) was captured for 1 min at 10 μL/min. Concentration series of the humanized Fab variants were then injected for 4 min at 30 μL/min over hTfR surfaces and dissociation was monitored for 5 min. Surface was regenerated with one 1 min pulse of 10 mM glycine-HCl at pH 1.5.

[2] = target: T1, His-tagged cynomolgus monkey TfR …; test: SPR, His-tagged TfR ectodomain captured on anti-His, 1:1 fit
Protocol: as §1

[3] = target: T3, His-tagged human TfR ectodomain (hTFRC_89-760_G142S; mature protein) (human, UniProt P02786 89-760); test: as above
T3 construct: It carries the G142S haplotype; also called hTfR ectodomain
Protocol: as §1

[4] = target: His-tagged mouse TfR ectodomain (mTFRC_89_764; mature protein) (mouse, UniProt Q62351 89-763); test: SPR, His-tagged mTfR ectodomain captured on anti-His
Protocol: as §1

[5] = target: T2, cTfR expressed on 300.19 cells (SEQ ID …); test: flow cytometry on cTfR-expressing 300.19 cells
Protocol: (§2) The binding kinetics of the four anti-TfR-GAA molecules to hTfR-expressing 300.19 cells and cTfR-expressing 300.19 cells were determined by flow cytometry. 300.19 is a murine pre-B cell line, originating from a lymphoma, and was stably transfected by nucleoporation with a plasmid expressing either hTfR or cTfR (SEQ ID NO: 1 and SEQ ID NO: 2, respectively).
(§3) 300.19 TFRC-expressing cells were coated at 5×10⁵ cells/well on 96-well High Bind plate (MSD L15XB-3) and 100 μL/well of anti-TfR-GAA molecule were added and incubated for 45 min at 4° C. and washed three times with PBS 1% BSA. […] Antibody binding was evaluated after centrifugation and resuspension of cells by adding 200 μl/well PBS 1% BSA and read using Guava® easyCyte™ 8HT Flow Cytometry System.

[6] = target: T4, hTfR expressed on 300.19 cells (SEQ ID NO: 1) (human, UniProt P02786 1-760); test: flow cytometry on hTfR-expressing 300.19 cells
T4 construct: Murine pre-B cell line 300.19, stably transfected with a plasmid expressing hTfR; also called human TfR; hTfR-expressing 300.19 cells
Protocol: as §2, §3

[7] = target: T2, cTfR expressed on 300.19 cells (SEQ ID …); test: flow cytometry; EC50 on cTfR cells against EC50 on hTfR cells
Protocol: as §2, §3

Sequence of His-tagged mouse TfR ectodomain (mTFRC_89_764; mature protein) (Q62351 other isoform, or with tags, fused parts or gaps): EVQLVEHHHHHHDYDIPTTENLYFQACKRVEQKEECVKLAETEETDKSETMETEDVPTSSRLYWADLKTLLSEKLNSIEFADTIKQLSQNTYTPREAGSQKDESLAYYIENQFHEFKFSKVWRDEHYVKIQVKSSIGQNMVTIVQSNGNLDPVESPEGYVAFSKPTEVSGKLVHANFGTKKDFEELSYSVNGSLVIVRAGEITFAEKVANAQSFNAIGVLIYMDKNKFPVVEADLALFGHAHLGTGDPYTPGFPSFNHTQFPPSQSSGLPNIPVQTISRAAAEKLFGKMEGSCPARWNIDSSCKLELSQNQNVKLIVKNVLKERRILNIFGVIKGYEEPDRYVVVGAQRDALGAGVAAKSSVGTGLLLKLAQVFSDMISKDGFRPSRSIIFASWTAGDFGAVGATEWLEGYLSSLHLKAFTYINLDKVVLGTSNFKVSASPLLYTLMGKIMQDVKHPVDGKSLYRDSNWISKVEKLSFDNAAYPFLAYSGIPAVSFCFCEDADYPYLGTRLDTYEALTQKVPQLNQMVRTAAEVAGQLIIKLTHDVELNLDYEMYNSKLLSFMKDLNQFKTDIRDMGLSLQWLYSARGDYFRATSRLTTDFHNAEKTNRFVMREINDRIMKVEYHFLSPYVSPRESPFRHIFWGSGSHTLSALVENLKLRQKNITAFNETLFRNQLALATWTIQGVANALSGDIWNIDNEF
T3 sequence (P02786 89-760 G142S): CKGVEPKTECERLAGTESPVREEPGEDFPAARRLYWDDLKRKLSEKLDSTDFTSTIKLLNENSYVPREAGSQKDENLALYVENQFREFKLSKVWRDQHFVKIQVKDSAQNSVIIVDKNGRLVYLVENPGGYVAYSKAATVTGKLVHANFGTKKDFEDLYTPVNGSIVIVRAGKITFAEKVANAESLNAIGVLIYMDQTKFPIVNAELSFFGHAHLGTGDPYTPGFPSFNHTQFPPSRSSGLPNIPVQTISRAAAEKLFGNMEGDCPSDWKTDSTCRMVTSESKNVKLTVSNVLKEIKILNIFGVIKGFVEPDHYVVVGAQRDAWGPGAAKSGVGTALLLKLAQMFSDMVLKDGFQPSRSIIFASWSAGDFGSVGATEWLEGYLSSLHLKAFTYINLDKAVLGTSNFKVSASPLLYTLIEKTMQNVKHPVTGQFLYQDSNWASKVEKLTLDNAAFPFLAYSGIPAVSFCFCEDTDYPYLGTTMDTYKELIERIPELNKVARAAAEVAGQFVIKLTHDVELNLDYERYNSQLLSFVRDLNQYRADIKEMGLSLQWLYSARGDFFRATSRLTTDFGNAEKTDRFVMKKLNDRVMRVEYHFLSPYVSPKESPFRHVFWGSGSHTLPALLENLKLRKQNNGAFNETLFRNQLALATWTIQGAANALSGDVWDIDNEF

Binder | Cynomolgus/human KD ratio [1] | Kd [2] [nM] | Kd [3] [nM] | binding result [4] | EC50 [5] [nM] | EC50 [6] [nM] | Cynomolgus/human ratio (TfR) [7]
531_1L2_variant3 Fab (Fab, V domains shown, Humanized Fab; The His-tag was removed with TEV protease before SPR) VH: EVQLLESGGGLVQPGGSLRLSCAASGYTFTRYWLNWVRQAPGKGLEWIGMIDPSVSETHYADSVKGRATLSVDKSKNTAYLQMNSLRAEDTAVYYCSQIRLPYYYAMDSWGQGTTVTVSS VL: DIQMTQSPSSLSASVGDRVTITCRASQDINSFLNWYQQKPGKAVKLLIYYTSRLQSGVPSRFSGSGSGTDYTLTISSLQPEDFATYFCQQGNTLPRTFGGGTKVEIK | 1.1 | 204 | 183 | no binding | – | – | –
531_1L2_variant21 Fab (Fab, V domains shown, Humanized Fab; The His-tag was removed with TEV protease before SPR) VH: QVQLVQSGAEVKKPGASVKVSCKASGYTFTRYYLNWVRQAPGQGLEWIGMIDPSVSETHYAQKFQGRATLTVDKSTSTAYMELSSLRSEDTAVYYCSQIRLPYYYAMDSWGQGTTVTVSS VL: DIQMTQSPSSLSASVGDRVTITCRASQDISSFLNWYQQKPGKAVKLLIYYTSRLQSGVPSRFSGSGSGTDYTLTISSLQPEDFATYFCQQGNTLPRTFGGGTKVEIK | 8.3 | 30.9 | 3.71 | no binding | – | – | –
531_1L2_variant14 Fab (Fab, V domains shown, Humanized Fab; The His-tag was removed with TEV protease before SPR) VH: QVQLVQSGAEVKKPGASVKVSCKASDYTFTRYWLNWVRQAPGQGLEWMGMIDPSVSETHYAQKFQGRVTMTRDTSTSTVYMELSSLRSEDTAVYYCSQIRLPYYYAMDSWGQGTTVTVSS VL: DIQMTQSPSSLSASVGDRVTITCRASQDINSFLNWYQQKPGKAVKLLIYYTSRLQSGVPSRFSGSGSGTDYTLTISSLQPEDFATYFCQQGNTLPRTFGGGTKVEIK | 8.7 | 75.1 | 8.6 | no binding | – | – | –
531_1L2_variant6 Fab (Fab, V domains shown, Humanized Fab; The His-tag was removed with TEV protease before SPR) VH: EVQLLESGGGLVQPGGSLRLSCAASGYTFTRYWLNWVRQAPGKGLEWIGMIDPSVSETHYADSVKGRATLSVDKSKNTAYLQMNSLRAEDTAVYYCSQIRLPYYYAMDSWGQGTTVTVSS VL: DIQMTQSPSSLSASVGDRVTITCRASQDISSFLNWYQQKPGKAVKLLIYYTSRLQSGVPSRFSGSGSGTDYTLTISSLQPEDFATYFCQQGNTLPRTFGGGTKVEIK | 3.9 | 300 | 77.4 | no binding | – | – | –
531_1L2_variant24 Fab (Fab, V domains shown, Humanized Fab; The His-tag was removed with TEV protease before SPR) VH: QVQLVQSGAEVKKPGASVKVSCKASGYTFTRYYLNWVRQAPGQGLEWIGMIDPSVSETHYAQKFQGRATLTVDKSTSTAYMELSSLRSEDTAVYYCSQIRLPYYYAMDSWGQGTTVTVSS VL: DIQMTQSPSSLSASVGDRVTITCRASQDISSFLNWYQQKPGKAVKLLIYYTSRLQSGVPSRFSGSGSGTDFTLTISSLQPEDFATYFCQQGNTLPRTFGGGTKVEIK | 8.3 | 84.6 | 10.2 | no binding | – | – | –
531_1L2_variant16 Fab (Fab, V domains shown, Humanized Fab; The His-tag was removed with TEV protease before SPR) VH: QVQLVQSGAEVKKPGASVKVSCKASGYTFTRYYLNWVRQAPGQGLEWIGMIDPSVSETHYAQKFQGRATLTVDKSTSTAYMELSSLRSEDTAVYYCSQIRLPYYYAMDSWGQGTTVTVSS VL: DIQMTQSPSSLSASVGDRVTITCRASQDINSFLNWYQQKPGKAVKLLIYYTSRLQSGVPSRFSGSGSGTDYTLTISSLQPEDFATYFCQQGNTLPRTFGGGTKVEIK | 6.9 | 70.4 | 10.2 | no binding | – | – | –
531_1L2_variant8 Fab (Fab, V domains shown, Humanized Fab; The His-tag was removed with TEV protease before SPR) VH: EVQLLESGGGLVQPGGSLRLSCAASGYTFTRYYLNWVRQAPGKGLEWIGMIDPSVSETHYADSVKGRATLSVDKSKNTAYLQMNSLRAEDTAVYYCSQIRLPYYYAMDSWGQGTTVTVSS VL: DIQMTQSPSSLSASVGDRVTITCRASQDISSFLNWYQQKPGKAVKLLIYYTSRLQSGVPSRFSGSGSGTDYTLTISSLQPEDFATYFCQQGNTLPRTFGGGTKVEIK | 7.8 | 475 | 61.2 | no binding | – | – | –
531_1L2_variant4 Fab (Fab, V domains shown, Humanized Fab; The His-tag was removed with TEV protease before SPR) VH: EVQLLESGGGLVQPGGSLRLSCAASGYTFTRYYLNWVRQAPGKGLEWIGMIDPSVSETHYADSVKGRATLSVDKSKNTAYLQMNSLRAEDTAVYYCSQIRLPYYYAMDSWGQGTTVTVSS VL: DIQMTQSPSSLSASVGDRVTITCRASQDINSFLNWYQQKPGKAVKLLIYYTSRLQSGVPSRFSGSGSGTDYTLTISSLQPEDFATYFCQQGNTLPRTFGGGTKVEIK | 10.1 | 1210 | 120 | no binding | – | – | –
531_1L2_variant17 Fab (Fab, V domains shown, Humanized Fab; The His-tag was removed with TEV protease before SPR) VH: QVQLVQSGAEVKKPGASVKVSCKASDYTFTRYWLNWVRQAPGQGLEWIGMIDPSVSETHYAQKFQGRATLTVDKSTSTAYMELSSLRSEDTAVYYCSQIRLPYYYAMDSWGQGTTVTVSS VL: DIQMTQSPSSLSASVGDRVTITCRASQDISSFLNWYQQKPGKAVKLLIYYTSRLQSGVPSRFSGSGSGTDYTLTISSLQPEDFATYFCQQGNTLPRTFGGGTKVEIK | 4.9 | 28.9 | 5.91 | no binding | – | – | –
anti-TfR 531v25-Fab-LC-GAA (Fab, Fab with human GAA fused to the C-terminus of the light chain; also called 531v25Fab-GAA) heavy: QVQLVQSGAEVKKPGASVKVSCKASGYTFTRYYLNWVRQAPGQGLEWIGMIDPSVSETHYAQKFQGRATLTVDKSTSTAYMELSSLRSEDTAVYYCSQIRLPYYYAMDSWGQGTTVTVSSASTKGPSVFPLAPSSKSTSGGTAALGCLVKDYFPEPVTVSWNSGALTSGVHTFPAVLQSSGLYSLSSVVTVPSSSLGTQTYICNVNHKPSNTKVDKKVEPKSC light: not shown | – | – | – | – | 74.6 | 9.9 | 7.5
